Test results reported in article doi:10.1101/2024.12.18.629111 (bioRxiv, 2024).

T1: CBP-Upf1-FL (S. cerevisiae, UniProt P30771 1-971)
T1 sequence (looked up): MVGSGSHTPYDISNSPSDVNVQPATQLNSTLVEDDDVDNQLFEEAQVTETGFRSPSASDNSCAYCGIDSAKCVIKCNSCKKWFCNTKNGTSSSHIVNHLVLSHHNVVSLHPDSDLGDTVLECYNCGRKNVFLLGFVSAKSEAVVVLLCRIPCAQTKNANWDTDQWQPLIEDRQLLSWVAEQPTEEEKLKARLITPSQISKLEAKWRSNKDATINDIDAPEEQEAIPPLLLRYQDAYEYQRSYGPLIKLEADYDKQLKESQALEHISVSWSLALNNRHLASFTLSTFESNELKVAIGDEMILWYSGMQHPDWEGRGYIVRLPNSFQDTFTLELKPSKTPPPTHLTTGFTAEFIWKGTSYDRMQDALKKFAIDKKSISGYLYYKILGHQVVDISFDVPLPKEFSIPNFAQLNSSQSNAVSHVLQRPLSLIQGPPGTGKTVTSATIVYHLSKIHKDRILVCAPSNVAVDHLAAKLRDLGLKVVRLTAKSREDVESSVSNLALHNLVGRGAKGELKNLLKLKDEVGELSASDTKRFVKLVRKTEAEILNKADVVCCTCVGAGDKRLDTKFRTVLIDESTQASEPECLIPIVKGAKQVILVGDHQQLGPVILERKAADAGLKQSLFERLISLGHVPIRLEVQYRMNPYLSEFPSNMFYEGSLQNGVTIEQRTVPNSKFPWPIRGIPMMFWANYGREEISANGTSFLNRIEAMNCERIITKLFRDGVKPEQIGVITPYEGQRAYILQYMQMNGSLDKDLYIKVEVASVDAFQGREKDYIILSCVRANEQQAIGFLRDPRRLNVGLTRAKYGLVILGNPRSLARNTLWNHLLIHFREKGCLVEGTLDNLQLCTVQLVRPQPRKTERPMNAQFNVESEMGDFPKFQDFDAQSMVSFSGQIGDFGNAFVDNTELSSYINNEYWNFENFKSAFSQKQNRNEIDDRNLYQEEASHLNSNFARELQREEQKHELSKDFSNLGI

T2: CBP-Upf1-CH-HD (S. cerevisiae, UniProt P30771 54-851)
T2 sequence (looked up): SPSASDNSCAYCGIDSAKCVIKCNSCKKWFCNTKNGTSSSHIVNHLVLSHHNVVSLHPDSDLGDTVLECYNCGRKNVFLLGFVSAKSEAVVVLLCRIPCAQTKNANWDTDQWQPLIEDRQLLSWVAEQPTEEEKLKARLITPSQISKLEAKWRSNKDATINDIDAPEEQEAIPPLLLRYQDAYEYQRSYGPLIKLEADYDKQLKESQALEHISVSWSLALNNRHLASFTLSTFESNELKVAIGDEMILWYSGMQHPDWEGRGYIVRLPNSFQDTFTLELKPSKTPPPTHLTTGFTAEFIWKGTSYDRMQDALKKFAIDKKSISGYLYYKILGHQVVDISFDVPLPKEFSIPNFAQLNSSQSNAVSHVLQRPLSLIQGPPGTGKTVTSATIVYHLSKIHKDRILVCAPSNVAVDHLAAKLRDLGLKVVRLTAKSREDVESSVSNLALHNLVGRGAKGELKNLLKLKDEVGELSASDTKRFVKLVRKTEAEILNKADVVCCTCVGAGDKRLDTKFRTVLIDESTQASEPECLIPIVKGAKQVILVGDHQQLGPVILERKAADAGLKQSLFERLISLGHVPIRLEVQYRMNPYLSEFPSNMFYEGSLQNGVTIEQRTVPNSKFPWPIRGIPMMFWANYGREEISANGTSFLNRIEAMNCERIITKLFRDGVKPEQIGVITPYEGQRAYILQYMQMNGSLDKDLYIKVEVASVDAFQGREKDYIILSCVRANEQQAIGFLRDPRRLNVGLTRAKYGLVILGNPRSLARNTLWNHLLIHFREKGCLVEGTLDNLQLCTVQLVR

T3: CBP-Upf1-HD-Ct (S. cerevisiae, UniProt P30771 221-971)
T3 sequence (looked up): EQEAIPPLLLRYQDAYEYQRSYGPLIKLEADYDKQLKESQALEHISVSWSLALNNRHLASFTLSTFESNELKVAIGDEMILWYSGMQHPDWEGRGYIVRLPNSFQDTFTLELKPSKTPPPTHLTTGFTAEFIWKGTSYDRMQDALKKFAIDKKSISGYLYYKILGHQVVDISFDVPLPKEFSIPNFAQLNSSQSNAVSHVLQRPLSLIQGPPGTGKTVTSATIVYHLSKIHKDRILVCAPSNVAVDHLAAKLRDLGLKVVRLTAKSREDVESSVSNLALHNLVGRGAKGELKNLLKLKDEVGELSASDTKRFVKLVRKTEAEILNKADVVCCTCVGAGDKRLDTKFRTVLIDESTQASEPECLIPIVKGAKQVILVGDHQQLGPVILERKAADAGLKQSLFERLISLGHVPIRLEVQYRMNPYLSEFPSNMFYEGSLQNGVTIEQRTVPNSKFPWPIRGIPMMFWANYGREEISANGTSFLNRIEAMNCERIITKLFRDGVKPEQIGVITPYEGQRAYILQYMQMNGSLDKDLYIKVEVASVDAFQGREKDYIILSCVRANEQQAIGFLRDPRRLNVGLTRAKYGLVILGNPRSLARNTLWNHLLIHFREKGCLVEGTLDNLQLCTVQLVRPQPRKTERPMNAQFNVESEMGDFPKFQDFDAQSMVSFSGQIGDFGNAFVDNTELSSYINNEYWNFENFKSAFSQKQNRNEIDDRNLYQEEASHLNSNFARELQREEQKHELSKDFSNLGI

T4: CBP-Upf1-HD (S. cerevisiae, UniProt P30771 221-851)
T4 sequence (looked up): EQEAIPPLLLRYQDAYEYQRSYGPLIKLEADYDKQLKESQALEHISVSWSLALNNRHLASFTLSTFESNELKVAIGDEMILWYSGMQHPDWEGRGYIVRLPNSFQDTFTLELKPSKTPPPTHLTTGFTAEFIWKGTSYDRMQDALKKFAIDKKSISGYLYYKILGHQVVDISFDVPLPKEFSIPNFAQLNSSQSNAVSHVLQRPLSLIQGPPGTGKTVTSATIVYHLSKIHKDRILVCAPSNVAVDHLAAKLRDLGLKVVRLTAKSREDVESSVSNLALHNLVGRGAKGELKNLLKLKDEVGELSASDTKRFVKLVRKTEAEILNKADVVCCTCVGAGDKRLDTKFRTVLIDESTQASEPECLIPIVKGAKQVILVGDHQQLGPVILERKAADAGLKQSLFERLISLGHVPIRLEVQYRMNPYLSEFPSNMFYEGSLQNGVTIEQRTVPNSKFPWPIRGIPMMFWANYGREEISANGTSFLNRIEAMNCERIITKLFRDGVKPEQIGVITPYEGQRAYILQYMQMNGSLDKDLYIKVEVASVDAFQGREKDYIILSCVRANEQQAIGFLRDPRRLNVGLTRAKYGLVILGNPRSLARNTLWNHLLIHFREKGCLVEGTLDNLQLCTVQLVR

B1: GST-Dcp2-UBD (domain or fragment, S. cerevisiae, UniProt P53550 434-720, looked up)
chain: GYSSSSPGQLLDILNSKKPDSNVQSSKKPKLKILQRGTDLNSIKQNNNDETAHSNSQALLDLLKKPTSSQKIHASKPDTSFLPNDSVSGIQDAEYEDFESSSDEEVETARDERNSLNVDIGVNVMPSEKDSRRSQKEKPRNDASKTNLNASAESNSVEWGPGKSSPSTQSKQNSSVGMQNKYRQEIHIGDSDAYEVFESSSDEEDGKKLEELEQTQDNSKLISQDILKENNFQDGEVPHRDMPTESNKSINETVGLSSTTNTVKKVPKVKILKRGETFASLANDKKA
B2: GST-Dcp2-UBD1 (domain or fragment, S. cerevisiae, UniProt P53550 434-508, looked up)
chain: GYSSSSPGQLLDILNSKKPDSNVQSSKKPKLKILQRGTDLNSIKQNNNDETAHSNSQALLDLLKKPTSSQKIHAS
B3: TS-Nmd4-His (natural protein, S. cerevisiae, UniProt Q12129 1-218, looked up)
chain: MTQYNFIIDASAFEKGLGNIKRWCSDCTEAVTLNFYIPTFTLNELDFLQQRRKSFAARESLKFIDRLDDSKFANLKVFIEFPEVLDIILWSDVMEHNDSSGKINIAKLPKRLKNLLKSCIYKCYLEGNEGLHWFLISEDPQIREMAMQCNIPSCSIVDVDSILSKDMNDKSFRESEKFNNMMLKNGTKEESENGREIIRTNFNKTVYASRGTGELWSP
B4: GST-Ebs1 (aa 1-591) (domain or fragment, S. cerevisiae, UniProt Q03466 1-591, looked up)
chain: MEPSNTQKEDLPTAFNGIKSQLNSILKSNQLFQDYALLNGFLAFVHSKLNAAILTSIESQCGKSFAADLDSFDQSSISSILDFSWESVHYPIFKWFQMWRNYILFEKENKKQQTKFIDFRKMNSKMLKFFKTVQNFYVNVINTVYKKYDISVLLPKRIIQDLKLSDIENTTNVGDILAVKTFNSSSPLAHLIPTLFHRCLLFLGTAYRYKTLLEEISNKYSISNFKKSLDFFRLASLVLPSAGETYSQAGAIFLQTGNLGIAVFNFVKGMMTKMPSPVSIKNFGALMVDNKSSLNRSLHTTIMNTYLQESKGPRTPAKEILEFYFLGLFGSVWSPTSWRDDTKPNQLNNGIKLRHLENALYETMSARYLNNIKTIFHNLIITIGGFHLLLKRRSDVSAKTLKDLRSNELDYLNFAFKYIAHILNDIVKESWSENPEVSEILGMVRIINCWIKANPMVLQYSQSNLEFVNALAYLINDIVKKKPSPSFSITEHIPKRTYWFEEDLMVKGLSFVNFQLSDFDDYEKILEMDHSLDRLIGNPPLCDKLSASSEMLLRLQAVVNISSQLLQNNNCGVEWSDNKSRYIFNKKIGFK
B5: CBP-Upf1-Ct (domain or fragment, S. cerevisiae, UniProt P30771 852-971, looked up)
chain: PQPRKTERPMNAQFNVESEMGDFPKFQDFDAQSMVSFSGQIGDFGNAFVDNTELSSYINNEYWNFENFKSAFSQKQNRNEIDDRNLYQEEASHLNSNFARELQREEQKHELSKDFSNLGI
B6: HisSUMO-tagged Ebs1 (aa 1-591) (domain or fragment, S. cerevisiae, UniProt Q03466 1-591, looked up)
chain: B4 chain

Key:
Assay in all cases: pull-down
CBP-Upf1-FL = target: T1, CBP-Upf1-FL
CBP-Upf1-CH-HD = target: T2, CBP-Upf1-CH-HD
CBP-Upf1-HD-Ct = target: T3, CBP-Upf1-HD-Ct
CBP-Upf1-HD = target: T4, CBP-Upf1-HD
GST-Ebs1 (aa 1-591) = target: B4

Row | Binder | binding result (CBP-Upf1-FL) | binding result (CBP-Upf1-CH-HD) | binding result (CBP-Upf1-HD-Ct) | binding result (CBP-Upf1-HD) | binding result (GST-Ebs1 (aa 1-591))
1 | B1 | binds | binds | – | – | –
2 | B2 | binds | binds | – | – | –
3 | B3 | binds | binds | binds | binds | –
4 | B4 | binds | – | – | – | –
5 | B5 | – | – | – | – | binds
6 | B6 | binds | – | – | – | –
